According to the supplement of paper PMC10724198:
± gives the standard deviation of the averaged measurements.

Legend:
Saccharomyces cerevisiae [1] = assay: protein stability index of tFT-peptide fusion in wild type (PSI (0-1 scale)); higher = more stable (slower turnover); conditions: genetic background: wild type
Procedure: (§1)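 MPS profiling in S. cerevisiae of two library types built from selected 12-aa C-degron peptides (IN1, IN2, LN1, LN3, VN2, R1-R5, W1-W3, Atg1 and Rpa12 C-termini): saturation mutagenesis libraries and C-terminal +1 capping libraries (13 aa). Each peptide is fused to the C-terminus of a sfGFP-mCherry timer, after a GGGS linker. Cells are FACS-sorted into 8 mCherry/sfGFP bins and sequenced. PSI runs from 0 (unstable) to 1 (stable), measured once in wild type and in the das1Δ or doa10Δ background.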

Saccharomyces cerevisiae [2] = assay: protein stability index of tFT-peptide fusion in deletion strain of DAS1 (PSI (0-1 scale)); higher = more stable (slower turnover)
Procedure: as §1

Saccharomyces cerevisiae [3] = assay: protein stability index of tFT-peptide fusion (C-terminal peptide) (PSI (0-1 scale)); higher = more stable (slower turnover); conditions: temperature: 30 C
Procedure: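 MPS profiling in S. cerevisiae of the yeast C-terminome library: the last 12 aa of each annotated ORF are fused to the C-terminus of a sfGFP-mCherry timer, after a GGGS linker. Cells are FACS-sorted into 8 mCherry/sfGFP bins and deep-sequenced. PSI runs from 0 (unstable) to 1 (stable); wild type and das1Δ backgrounds, two technical replicates each.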

[4] = genetic background: das1 deletion
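For protein stability index of tFT-peptide fusion in deletion strain of DAS1 in this document: PSI is a weighted mean of each variant's read distribution over the sorted stability bins, computed only for variants having over 10 reads in total.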
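For protein stability index of tFT-peptide fusion in wild type in this document: PSI derived as read-weighted mean over the 8 sorting bins, only variants exceeding 10 total reads kept, mCherry placed adjacent to the peptide and sfGFP distal.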

| Sequence | protein stability index (Saccharomyces cerevisiae [1]) | protein stability index (Saccharomyces cerevisiae [2]) | protein stability index (Saccharomyces cerevisiae [3]; [4]) | protein stability index (Saccharomyces cerevisiae [3]; genetic background: wild type) |
| --- | --- | --- | --- | --- |
| CTSCGYKFRTNNL | 0.723 | 0.715 |  |  |
| CTSCGYKFRTNNQ | 0.681 | 0.673 |  |  |
| CTSCGYKFRTNV | 0.53 | 0.681 |  |  |
| CTSCGYKFRTWN | 0.288 | 0.727 |  |  |
| CTSCGYTFRTNN | 0.245 | 0.708 |  |  |
| CTSCIYKFRTNN | 0.163 | 0.666 |  |  |
| CTSCPYKFRTNN | 0.261 | 0.666 |  |  |
| CTSYGYKFRTNN | 0.145 | 0.688 |  |  |
| EKHKKGQKQKIN | 0.178 | 0.613 |  |  |
| FKMRWTFRYWVN | 0.119 | 0.735 |  |  |
| FLMRWTFRYWVN | 0.0449 | 0.342 |  |  |
| VYENNSYPNSHT [RTT105 C-terminal 12 aa] |  |  | 0.6964 ± 0.0011 | 0.678 ± 0.023 |
| WDKQKALERRSV [CNS1 C-terminal 12 aa] |  |  | 0.723 ± 0.015 | 0.705 ± 0.024 |
| WGSIGQKLRRSA [YOL118C C-terminal 12 aa] |  |  | 0.704 ± 0.012 | 0.728 ± 0.015 |
| WLRKWLSTFVHQ [YNL018C C-terminal 12 aa] |  |  | 0.732 ± 0.042 | 0.23 ± 0.022 |
| WRRSKSISTHLR [YLR366W C-terminal 12 aa] |  |  | 0.711 ± 0.0074 | 0.681 ± 0.034 |
| WSPLHAAKRHRI [MRPL51 C-terminal 12 aa] |  |  | 0.692 ± 0.014 | 0.695 ± 0.02 |
| YAGHRFHDGNKL [ERR1 C-terminal 12 aa] |  |  | 0.726 ± 0.009 | 0.737 ± 0.043 |
| YAINSGARFDLS [HUL5 C-terminal 12 aa] |  |  | 0.713 ± 0.025 | 0.687 ± 0.0069 |

| Sequence | protein stability index (Saccharomyces cerevisiae [1]) | protein stability index (Saccharomyces cerevisiae [2]) | protein stability index (Saccharomyces cerevisiae [3]; [4]) | protein stability index (Saccharomyces cerevisiae [3]; genetic background: wild type) |
| --- | --- | --- | --- | --- |
| YANAPIEEKPLI [PUN1 C-terminal 12 aa] |  |  | 0.702 ± 0.018 | 0.683 ± 0.017 |
| YDYLINNKTIFD [POF1 C-terminal 12 aa] |  |  | 0.722 ± 0.022 | 0.736 ± 0.022 |
| YEEGESIFGSLF [REV7 C-terminal 12 aa] |  |  | 0.71 ± 0.029 | 0.7145 ± 0.0024 |
| YENEEIQRKRCI [YOR364W C-terminal 12 aa] |  |  | 0.696 ± 0.017 | 0.658 ± 0.0062 |
| YFSSNISMKTEN [REB1 C-terminal 12 aa] |  |  | 0.7171 ± 0.0057 | 0.7373 ± 0.0014 |
| YIKKSAKKGDKN [YHR140W C-terminal 12 aa] |  |  | 0.676 ± 0.032 | 0.65 ± 0.016 |
| YKAVSVSANSPE [SOG2 C-terminal 12 aa] |  |  | 0.689 ± 0.016 | 0.673 ± 0.032 |
| YKNNWLILQQQD [KSP1 C-terminal 12 aa] |  |  | 0.694 ± 0.066 | 0.703 ± 0.082 |
| YNGGGKKLDGFW [YSP3 C-terminal 12 aa] |  |  | 0.7015 ± 0.0059 | 0.691 ± 0.025 |
| YNKICSLASRVI [MRPL38 C-terminal 12 aa] |  |  | 0.669 ± 0.0074 | 0.673 ± 0.017 |
| YPVDKEGDIVLE [THP2 C-terminal 12 aa] |  |  | 0.679 ± 0.0084 | 0.662 ± 0.039 |
| YQCSETSTPRNT [GIC1 C-terminal 12 aa] |  |  | 0.723 ± 0.025 | 0.675 ± 0.012 |
| YRIIDCVIAQLP [NVJ3 C-terminal 12 aa] |  |  | 0.669 ± 0.045 | 0.655 ± 0.046 |
| YSDGRNYKESSI [CSS3 C-terminal 12 aa] |  |  | 0.69 ± 0.037 | 0.656 ± 0.045 |
| YSILWSDVYPDS [PDR1 C-terminal 12 aa] |  |  | 0.7408 ± 0.0068 | 0.754 ± 0.013 |
| YTINYETNTVEY [NUP133 C-terminal 12 aa] |  |  | 0.641 ± 0.024 | 0.6455 ± 0.0026 |
| YVKEAQSVVTSL [YIR043C C-terminal 12 aa] |  |  | 0.672 ± 0.013 | 0.659 ± 0.029 |
| YVSHKGFIVEDM [RPL9B C-terminal 12 aa] |  |  | 0.695 ± 0.0088 | 0.6932 ± 0.006 |
| YWRKQYPDADIP [YCR007C C-terminal 12 aa] |  |  | 0.71925 ± 0.00051 | 0.747 ± 0.025 |
